The target in the assay is T1, EsaC (Staphylococcus aureus, UniProt A0A0H2XIK2 1-130).
T1 construct: Predicted soluble 130 amino acid protein; also called EsaC polypeptide; purified EsaC
T1 sequence: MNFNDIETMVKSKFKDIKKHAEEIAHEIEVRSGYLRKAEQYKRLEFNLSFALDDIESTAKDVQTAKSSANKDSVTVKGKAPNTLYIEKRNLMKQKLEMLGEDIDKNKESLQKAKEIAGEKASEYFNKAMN
Description: purified proteins mixed; method not described.

The source of these data is US20110206676A1 (UNIVERSITY OF CHICAGO, published 2011).

B1: EsaB (other)
chain: MNQHVKVTFDFTNYNYGTYDLAVPAYLPIKNLIALVLDSLDISIFDVNTQIKVMTKGQLLVENDRLIDYQIADGDILKLL
notes: 80 amino acid predicted soluble protein; also called purified EsaB
Take B1: the binding result is on record as “no binding”.
